Among the data in paper PMC9484259 are Kd values, retold here.

Assay in all cases: BLI; Forte Bio Octet; biotinylated Mm IgG or Fc captured on streptavidin SAX 2.0 tips, FcγRIII in solution in 3-fold serial dilutions (10 mM to 0.013 mM [sic]), PBST (0.05% Tween-PBS), 300 s association and 300 s dissociation; KD from equilibrium fits, average of two independent experiments; the footnote of Table 1 says SPR
A general note: Biolayer interferometry detects binding as a change in optical thickness at a sensor tip.

Experiment [1] deals with Mm IgG3 (Macaca mulatta (rhesus macaque)).
Experiment [2] addresses Mm IgG2 (Macaca mulatta (rhesus macaque)).
Experiment [3] has as its target Fc of Mm IgG4 (Macaca mulatta (rhesus macaque)).
For experiment [4], the target named is macaque immunoglobulin IgG1 Fc (residues 237-447) (Macaca mulatta (rhesus macaque)).
Experiment [5] deals with Mm IgG4 (Macaca mulatta (rhesus macaque)).
In experiment [6] the target is Fc of Mm IgG3 (Macaca mulatta (rhesus macaque)).
The target in experiment [7] is Fc of Mm IgG2 (Macaca mulatta (rhesus macaque)).
The target of experiment [8] is Mm IgG1 (Macaca mulatta (rhesus macaque)).

Usually Kd stands for a measure of binding affinity in units of concentration.

Consider “Mm FcγRIII(Val^158), fully glycosylated, complex glycans (receptor)”, for which the Kd in experiment [1] is 3200 nM; in experiment [2], 2100 nM; in experiment [3], 630 nM; in experiment [4] it was 360 nM; in experiment [5] it was 570 nM; in experiment [6], 460 nM. Besides, the Kd in experiment [7] worked out at 90 nM; in experiment [8] it was 410 nM.
For the substance “Mm FcγRIII(Ile^158), partial glycosylation (Asn^38 and Asn^169 glycans removed), Man5 glycans (receptor)”, the Kd in experiment [1] was 3000 nM; in experiment [2], 2800 nM; in experiment [3], 1900 nM; in experiment [4], 60 nM; in experiment [5], 1700 nM; in experiment [6], 160 nM. Besides, the figures for the Kd in experiment [7] and in experiment [8] were 1500 nM and 280 nM, respectively.
On to “Mm FcγRIII(Val^158), partial glycosylation (Asn^38 and Asn^169 glycans removed), Man5 glycans (receptor)”, for which the Kd was determined as 4800 nM in experiment [1]; 2200 nM in experiment [2]; 850 nM in experiment [3]; 10 nM in experiment [4]; 2200 nM in experiment [5]; 280 nM in experiment [6]. The Kd in experiment [7] was determined as 610 nM; in experiment [8] it was 290 nM.
Take “Mm FcγRIII(Ile^158), fully glycosylated, complex glycans (from UniProt A3RFZ7 21-206) (receptor)”: the Kd in experiment [1] turned out to be 1900 nM; in experiment [2], 1800 nM; in experiment [3] it was 1800 nM; in experiment [4] it was 250 nM; in experiment [5], 980 nM; in experiment [6], 400 nM. Moreover, the Kd turned out to be 230 nM in experiment [7] and 260 nM in experiment [8].
With “Mm FcγRIII(Val^158), partial glycosylation (Asn^38 and Asn^169 glycans removed), complex glycans (receptor)”, the Kd in experiment [1] worked out at 4200 nM; in experiment [2] it was 2600 nM; in experiment [3], 1000 nM; in experiment [4] it was 30 nM; in experiment [5], 3000 nM; in experiment [6], 250 nM. In addition, the Kd in experiment [7] came to 1200 nM; in experiment [8] it was 460 nM.
In the case of “Mm FcγRIII(Val^158), fully glycosylated, Man5 glycans (receptor)”, the Kd amounted to 2300 nM in experiment [1]; 1800 nM in experiment [2]; 530 nM in experiment [3]; 300 nM in experiment [4]; 300 nM in experiment [5]; 240 nM in experiment [6]. For the same substance, the Kd was determined as 80 nM in experiment [7] and 280 nM in experiment [8].
For “Mm FcγRIII(Ile^158), fully glycosylated, Man5 glycans (from UniProt A3RFZ7 21-206) (receptor)”, the Kd in experiment [1] amounted to 1900 nM; in experiment [2] it was 1500 nM; in experiment [3] it was 1100 nM; in experiment [4], 210 nM; in experiment [5], 490 nM; in experiment [6] it was 290 nM. Further, the Kd in experiment [7] was 150 nM; in experiment [8] it was 220 nM.
For “Mm FcγRIII(Ile^158), partial glycosylation (Asn^38 and Asn^169 glycans removed), complex glycans (receptor)”, the Kd turned out to be 2800 nM in experiment [1]; 2300 nM in experiment [2]; 2200 nM in experiment [3]; 120 nM in experiment [4]; 2300 nM in experiment [5]; 230 nM in experiment [6]. Also, the Kd in experiment [7] is 1600 nM; in experiment [8], 340 nM.
